Sequences and labels used below:
B1: APBB1IP (parent)
chain: FNYSVGFKDLNESLNALEDQDLDA
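Note: lentivirally expressed fusions sorted by FACS into six bins by GFP to DsRed ratio, PSI derived from sequencing read proportions per bin multiplied by bin number.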

Variants of B1 are the subject of this data set. As to the kind of experiment: protein stability index of a GFP-peptide fusion (GPS, HEK-293T) (PSI 1-6); higher = more stable. As to conditions: c terminus: a fixed tail appended.
In the case of FNYSVGFKDYNESLNALEDQDLDA [L10Y], the protein stability index was 4.52.
As for FNYSVGFKDCNESLNALEDQDLDA [L10C], the figure is 3.5; as for FNYSVYFKDLNESLNALEDQDLDA [G6Y], 1.71; as for FNYSVRFKDLNESLNALEDQDLDA [G6R], 3.9.
Under FNYSVSFKDLNESLNALEDQDLDA [G6S] stands 3.89; under FNYSVAFKDLNESLNALEDQDLDA [G6A], 3.34.
FNYSVCFKDLNESLNALEDQDLDA [G6C]: the protein stability index turned out to be 3.
Under FNYSVPFKDLNESLNALEDQDLDA [G6P] stands 4.73; under FNYSVEFKDLNESLNALEDQDLDA [G6E], 4.2; under FNYSVNFKDLNESLNALEDQDLDA [G6N], 4.04.
As for FNYSVFFKDLNESLNALEDQDLDA [G6F], the figure is 2.58.
In the case of FNYSVGFKDLNESLAALEDQDLDA [N15A], the protein stability index turned out to be 4.44.
Under FNYSVGFKDLNESLRALEDQDLDA [N15R] stands 3.64; under FNYSVGFKDLNESLKALEDQDLDA [N15K], 4.77; under FNYSVGFKDLNESLGALEDQDLDA [N15G], 4.78.
Under FNYSVGFKDLNESLHALEDQDLDA [N15H] stands 4.08; under FNYSVGFKDLNESLMALEDQDLDA [N15M], 4.39; under FNYSVGFKDLNESLPALEDQDLDA [N15P], 5.
Regarding FNYSVGFKDLNLSLNALEDQDLDA [E12L], the protein stability index was found to be 3.23.
As for FNYSVGFKDLNNSLNALEDQDLDA [E12N], the figure is 4.37; as for FNYSVGFKDLNISLNALEDQDLDA [E12I], 3.69.
Under FNYSVGFKDLNTSLNALEDQDLDA [E12T] stands 4.24; under FNYSVGFKDLNSSLNALEDQDLDA [E12S], 4.17; under FNYSVGFKDLNKSLNALEDQDLDA [E12K], 4.29.
Under FNYSVGFKDLNDSLNALEDQDLDA [E12D] stands 4.32; under FNYSVGFKDLNCSLNALEDQDLDA [E12C], 2.82.
Turning to FNYSVGFKDLNVSLNALEDQDLDA [E12V], the protein stability index worked out at 3.96.
As to FNYSVGFKDLNRSLNALEDQDLDA [E12R], the protein stability index amounted to 3.92.
In the case of FNYSVGFKDLNEMLNALEDQDLDA [S13M], the protein stability index was found to be 3.88.
For the variant FNYSVGFKDLNERLNALEDQDLDA [S13R], the protein stability index was determined as 4.15.
Under FNYSVGFKDLNEKLNALEDQDLDA [S13K] stands 3.8; under FNYSVGFKDLNEQLNALEDQDLDA [S13Q], 4.51; under FNYSVGFKDLNELLNALEDQDLDA [S13L], 2.83.
As for FNYSVGFKDLNEYLNALEDQDLDA [S13Y], the protein stability index is 3.54.
In the case of FNYSVGFKDLNEALNALEDQDLDA [S13A], the protein stability index worked out at 4.56.
For the variant FNYSVGFKDLNETLNALEDQDLDA [S13T], the protein stability index came to 3.72.
In the case of FNYSVGNKDLNESLNALEDQDLDA [F7N], the protein stability index stood at 5.13.
As for FNYSVGDKDLNESLNALEDQDLDA [F7D], the protein stability index came out at 5.21.
For FNYSVGEKDLNESLNALEDQDLDA [F7E], the protein stability index is 5.24.
Under FNYSVGMKDLNESLNALEDQDLDA [F7M] stands 4.48; under FNYSVGSKDLNESLNALEDQDLDA [F7S], 5.41.
Under FNYSVGTKDLNESLNALEDQDLDA [F7T] stands 5.27.
As for FNYSVGLKDLNESLNALEDQDLDA [F7L], the figure is 4.53; as for FNYSVGGKDLNESLNALEDQDLDA [F7G], 5.22; as for FNYSVGQKDLNESLNALEDQDLDA [F7Q], 5.15.
With FNYSVGPKDLNESLNALEDQDLDA [F7P], the protein stability index was found to be 4.49.
Under FNYSVGKKDLNESLNALEDQDLDA [F7K] stands 5.18.
As for FNYSVGYKDLNESLNALEDQDLDA [F7Y], the figure is 4.55.
As for FNYSQGFKDLNESLNALEDQDLDA [V5Q], the figure is 4.65; as for FNYSDGFKDLNESLNALEDQDLDA [V5D], 4.65; as for FNYSRGFKDLNESLNALEDQDLDA [V5R], 4.82.
For FNYSFGFKDLNESLNALEDQDLDA [V5F], the protein stability index came to 4.34.
As to FNYSAGFKDLNESLNALEDQDLDA [V5A], the protein stability index is 4.95.
As for FNYSTGFKDLNESLNALEDQDLDA [V5T], the figure is 4.96; as for FNYSWGFKDLNESLNALEDQDLDA [V5W], 3.68; as for FNYSHGFKDLNESLNALEDQDLDA [V5H], 4.76.
In the case of FNYSKGFKDLNESLNALEDQDLDA [V5K], the protein stability index was 4.65.
Under FNYSVGFKDLNESLNALWDQDLDA [E18W] stands 2.52; under FNYSVGFKDLNESLNALADQDLDA [E18A], 3.66.
For the variant FNYSVGFKDLNESLNALSDQDLDA [E18S], the protein stability index came to 3.71.
On to FNYSVGFKDLNESLNALTDQDLDA [E18T], for which the protein stability index came to 3.44.
As for FNYSVGFKDLNESLNALQDQDLDA [E18Q], the figure is 3.98; as for FNYSVGFKDLNESLNALCDQDLDA [E18C], 3.56; as for FNYSVGFKDLNESLNALHDQDLDA [E18H], 3.92.
Regarding FNYSVGFKDLNESLNALEDQDLDE [A24E], the protein stability index amounted to 4.91.
In the case of FNYSVGFKDLNESLNALEDQDLDY [A24Y], the protein stability index worked out at 3.55.
As for FNYSVGFKDLNESLNALEDQDLDF [A24F], the figure is 3.85; as for FNYSVGFKDLNESLNALEDQDLDQ [A24Q], 4.72.
As for FNYSVGFKDLNESLNALEDQDLDG [A24G], the figure is 3.68; as for FNYSVGFKDLNESLNVLEDQDLDA [A16V], 3.47.
As for FNYSVGFKDLNESLNGLEDQDLDA [A16G], the figure is 3.94; as for FNYSVGFKDLNESLNLLEDQDLDA [A16L], 4.04; as for FNYSVGFKDLNESLNCLEDQDLDA [A16C], 4.47.
Take FNYSVGFKDLNESLNFLEDQDLDA [A16F]: the protein stability index amounted to 3.92.
Under FNYSVGFKDLNESLNYLEDQDLDA [A16Y] stands 3.93; under FNYSVGFKDLNESLNHLEDQDLDA [A16H], 4.37.
Under FNYSVGFKDLNESLNKLEDQDLDA [A16K] stands 4.36; under FNYSVGFKDLNESLNNLEDQDLDA [A16N], 4.51.
As for FNYSVGFKDLNESLNQLEDQDLDA [A16Q], the figure is 4.52; as for FNYMVGFKDLNESLNALEDQDLDA [S4M], 4.23; as for FNYDVGFKDLNESLNALEDQDLDA [S4D], 5.11.
As for FNYNVGFKDLNESLNALEDQDLDA [S4N], the protein stability index turned out to be 4.61.
On to FNYFVGFKDLNESLNALEDQDLDA [S4F], for which the protein stability index was 3.24.
FNYIVGFKDLNESLNALEDQDLDA [S4I]: the protein stability index was determined as 3.76.
As for FNYHVGFKDLNESLNALEDQDLDA [S4H], the figure is 4.79.
As for FRYSVGFKDLNESLNALEDQDLDA [N2R], the figure is 3.26; as for FYYSVGFKDLNESLNALEDQDLDA [N2Y], 2.72; as for FTYSVGFKDLNESLNALEDQDLDA [N2T], 2.23.
As for FSYSVGFKDLNESLNALEDQDLDA [N2S], the protein stability index came to 2.64.
Under FWYSVGFKDLNESLNALEDQDLDA [N2W] stands 2.4; under FAYSVGFKDLNESLNALEDQDLDA [N2A], 2.07.
Regarding FIYSVGFKDLNESLNALEDQDLDA [N2I], the protein stability index stood at 4.43.
For the variant FGYSVGFKDLNESLNALEDQDLDA [N2G], the protein stability index was found to be 4.39.
Under FFYSVGFKDLNESLNALEDQDLDA [N2F] stands 3.07.

The values are drawn from the supplement of paper PMC10567573.
